# Measured values published in patent US20130209396A1 (ELEVEN BIOTHERAPEUTICS, published 2013).
# Numbering of substitutions follows the chain as printed.
# T1: soluble recombinant human IL-1RI (corresponding to the extracellular domain of IL-1RI) (human, UniProt P14778 18-336)
# T1 construct: extracellular domain; also called interleukin-1 receptor I; immobilized soluble IL-1RI
# T1 sequence (looked up): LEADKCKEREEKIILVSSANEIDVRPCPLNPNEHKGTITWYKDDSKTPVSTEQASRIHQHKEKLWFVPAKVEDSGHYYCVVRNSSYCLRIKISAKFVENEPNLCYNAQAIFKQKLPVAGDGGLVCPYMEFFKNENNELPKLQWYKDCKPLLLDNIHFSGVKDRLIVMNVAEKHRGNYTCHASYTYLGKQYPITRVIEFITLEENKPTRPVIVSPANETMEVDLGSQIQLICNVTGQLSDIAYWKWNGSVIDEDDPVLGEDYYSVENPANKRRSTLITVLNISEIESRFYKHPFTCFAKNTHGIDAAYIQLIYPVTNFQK
# T2: IL-1RI on HEK-Blue IL-1β responsive cells (UniProt P14778 18-569)
# T2 sequence (looked up): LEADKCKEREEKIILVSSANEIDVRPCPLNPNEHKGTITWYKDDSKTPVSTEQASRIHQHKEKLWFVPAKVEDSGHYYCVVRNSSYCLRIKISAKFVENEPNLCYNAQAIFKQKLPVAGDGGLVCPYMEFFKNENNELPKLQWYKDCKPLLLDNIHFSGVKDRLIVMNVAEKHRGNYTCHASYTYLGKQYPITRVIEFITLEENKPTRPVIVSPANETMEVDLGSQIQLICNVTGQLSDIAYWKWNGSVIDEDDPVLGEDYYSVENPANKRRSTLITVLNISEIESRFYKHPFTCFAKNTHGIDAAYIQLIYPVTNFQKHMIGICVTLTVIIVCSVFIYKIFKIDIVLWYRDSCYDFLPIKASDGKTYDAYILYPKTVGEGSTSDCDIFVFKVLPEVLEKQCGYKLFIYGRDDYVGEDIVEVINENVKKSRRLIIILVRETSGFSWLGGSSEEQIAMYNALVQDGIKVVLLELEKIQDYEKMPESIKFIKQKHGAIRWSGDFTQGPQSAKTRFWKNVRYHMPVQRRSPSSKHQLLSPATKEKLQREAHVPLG
# B1: P04 (designed binder)
# chain: APVRSLAFRIWDVNQKTFYLRNNQLVAGYLQGPNVNLEEKFSMSFVQGEESNDKIPVALGLKEKNLYLSCVLKDDKPTLQLESVDPKNYPKKKMEKRFVFNKIEINNKLEFESAACPGWFLCTAMEADQPVSLTNMPDEGVMVTKFTMQFVSS
# notes: Chimeric IL-1β/IL-1Ra cytokine domain expressed in E. coli; Both hexa-histidine tagged and untagged forms were made; also called P04 domain
# B2: P03 (designed binder)
# chain: B1 chain with N101I, K102R, I103S, E104D, I105S, N106G, N107P, K108T, L109T, E110S
# notes: Chimeric IL-1β/IL-1Ra cytokine domain expressed in E. coli; Both hexa-histidine tagged and untagged forms were made; also called P03 domain
# B3: P05 (designed binder)
# chain: B1 chain with A7N, F8C, A115Q, C116F, G118N, T147Y
# B4: P02 (designed binder)
# chain: APVRSLAFRIWDVNQKTFYLRNNQLVAGYLQGPNVNLEEKIDVSFVQGEESNDKIPVALGIHGGKMCLSCVKSGDETRLQLEAVDPKNYPKKKMEKRFVFNKIEINNKLSFESAACPGWFLCTAMEADQPVSLTNMPDEGVMVTKFYMQFVSS
# notes: Chimeric IL-1β/IL-1Ra cytokine domain expressed in E. coli; also called P02 domain
# What was measured:
# [1] = target: T1, soluble recombinant human IL-1RI …; assay: SPR (Reichert SR7000DC), soluble human IL-1RI; end of range tied to P04 by Table 7
# Description: (§1) The binding properties of proteins for soluble recombinant human IL-1RI (corresponding to the extracellular domain of IL-1RI) were evaluated using surface plasmon resonance with a Reichert SR7000DC Dual Channel SPR system. Binding was evaluated in phosphate buffered saline with 0.005% Tween 20. […] Thus, the P01 protein bound to IL-1RI with a greater affinity than did IL-1β under similar conditions.
# (§2) See for example FIGS. 9C and 9D and Table 7 below.
# [2] = target: T1, soluble recombinant human IL-1RI …; assay: SPR (Reichert SR7000DC), soluble human IL-1RI; end of range tied to P03 (highest Kd) by Table 7
# Description: as §1, §2
# [3] = target: T2, IL-1RI on HEK-Blue IL-1β responsive …; assay: cell-based or functional assay
# [4] = target: T1, soluble recombinant human IL-1RI …; assay: SPR (Reichert SR7000DC), soluble human IL-1RI; end of range tied to P02 (lowest Kd) by Table 7
# Description: as §1, §2
binder,measurement,setting,value
B1,Kd,[1],1.7 nM
same,kon,[1],30000 M⁻¹ s⁻¹
B2,koff,[2],0.001 s⁻¹
B3,"IC50 of antagonism of IL-1β activity, SEAP reporter in HEK-Blue IL-1β cells",[3],< 5 ng/mL
B4,koff,[4],2e-05 s⁻¹
